Test results reported in the supplement of paper PMC7125110.
± gives the standard error. For some of these results: Fewer inactive variants are shown than the library holds.

B1: glmS ribozyme (parent)
chain: AUAAAAGCGCCAGAACUACAGAAAUGUAGUUGACGAGGAGGAGGUUUAUCGAAUUUUCGGCGGAUGCCUCCAAA

Key:
Conditions in all cases: with glucosamine-6-phosphate
glucosamine-6-phosphate [1] = variants of: B1; assay: kcat; higher = faster cleavage; RNA array
Summary of the method: (§1)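 Glucosamine-6-phosphate in HEPES/KCl/Mg(OAc)2 buffer, at 40 μM to 10 mM, was flowed over barcoded ribozyme variants transcribed in situ by E. coli RNA polymerase on sequenced MiSeq chips. Tracking was through a hybridised Cy3 probe at 37 °C. kobs, kcat and KM came from exponential decay fits and weighted Michaelis–Menten fits of normalised per-tile medians.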

glucosamine-6-phosphate [2] = variants of: B1; assay: KM; higher = weaker cofactor use; RNA array
Summary of the method: as §1

glucosamine-6-phosphate [3] = variants of: B1; assay: self-cleavage kobs at 2500 uM GlcN6P; higher = faster cleavage; RNA array
Summary of the method: as §1

glucosamine-6-phosphate [4] = variants of: B1; assay: self-cleavage kobs at 10000 uM GlcN6P; higher = faster cleavage; RNA array
Summary of the method: as §1

glucosamine-6-phosphate [5] = variants of: B1; assay: self-cleavage kobs at 640 uM GlcN6P; higher = faster cleavage; RNA array
Summary of the method: as §1

glucosamine-6-phosphate [6] = variants of: B1; assay: self-cleavage kobs at 40 uM GlcN6P; higher = faster cleavage; RNA array
Summary of the method: as §1

glucosamine-6-phosphate [7] = variants of: B1; assay: self-cleavage kobs at 160 uM GlcN6P; higher = faster cleavage; RNA array
Summary of the method: as §1

Row | Variant | kcat (glucosamine-6-phosphate [1]) | KM (glucosamine-6-phosphate [2]) | self-cleavage kobs at 2500 uM GlcN6P (glucosamine-6-phosphate [3]) | self-cleavage kobs at 10000 uM GlcN6P (glucosamine-6-phosphate [4]) | self-cleavage kobs at 640 uM GlcN6P (glucosamine-6-phosphate [5]) | self-cleavage kobs at 40 uM GlcN6P (glucosamine-6-phosphate [6]) | self-cleavage kobs at 160 uM GlcN6P (glucosamine-6-phosphate [7])
1 | U57A U69C | 0.000113 ± 1.4e-05 s⁻¹ | 1640 ± 640 µM | 7.81e-05 ± 1.8e-05 s⁻¹ | 9.38e-05 ± 1.8e-05 s⁻¹ |  |  | 
2 | A12G G40C | 0.000334 ± 3.5e-05 s⁻¹ | 3830 ± 720 µM | 0.000124 ± 1.6e-05 s⁻¹ | 0.000248 ± 3.1e-05 s⁻¹ | 5.37e-05 ± 1e-05 s⁻¹ |  | 
3 | C10U C68U | 1.42e-05 ± 6.5e-06 s⁻¹ |  |  |  |  | < 1e-05 s⁻¹ | 
4 | G51C U69A | < 1e-05 s⁻¹ |  |  |  |  | < 1e-05 s⁻¹ | 
5 | C34A U45A G51U | 0.000482 ± 0.00015 s⁻¹ |  | 0.000272 ± 0.0001 s⁻¹ | 0.00041 ± 0.00016 s⁻¹ | 0.000198 ± 5.3e-05 s⁻¹ |  | 
6 | G43U A73U | 4.34e-05 ± 8.8e-06 s⁻¹ |  | 4.73e-05 ± 2.1e-05 s⁻¹ | 3.88e-05 ± 1e-05 s⁻¹ |  |  | 
7 | U30C U45C | 3.55e-05 ± 1.6e-05 s⁻¹ |  | 4.35e-05 ± 2.1e-05 s⁻¹ |  |  | < 1e-05 s⁻¹ | 
8 | G66C C67A | 0.000183 ± 3e-05 s⁻¹ | 2370 ± 860 µM | 0.000107 ± 1.6e-05 s⁻¹ | 0.000137 ± 2.5e-05 s⁻¹ | 3.04e-05 ± 1.2e-05 s⁻¹ |  | 
9 | G29A A64G | 0.0066 ± 0.0018 s⁻¹ | 3900 ± 1500 µM | 0.00217 ± 0.00041 s⁻¹ | 0.00532 ± 0.00092 s⁻¹ | 0.000967 ± 0.00022 s⁻¹ | 0.000101 ± 2.6e-05 s⁻¹ | 0.000242 ± 6.6e-05 s⁻¹
10 | U65G C67U C68U | 9.98e-05 ± 3.8e-05 s⁻¹ |  | 5.84e-05 ± 1.3e-05 s⁻¹ | 6.91e-05 ± 2.9e-05 s⁻¹ |  |  | 
11 | G40C U45C | 0.000403 ± 4.9e-05 s⁻¹ | 2310 ± 570 µM | 0.000195 ± 3.4e-05 s⁻¹ | 0.000344 ± 6.4e-05 s⁻¹ | 0.0001 ± 2.5e-05 s⁻¹ |  | 
12 | G29U C58U | 0.000107 ± 1.1e-05 s⁻¹ | 3710 ± 980 µM | 4.57e-05 ± 9.1e-06 s⁻¹ | 7.71e-05 ± 8.8e-06 s⁻¹ |  |  | 
13 | A14C G32C | 0.000467 ± 2.4e-05 s⁻¹ | 5350 ± 480 µM | 0.000149 ± 2.1e-05 s⁻¹ | 0.000304 ± 3.5e-05 s⁻¹ | 4.87e-05 ± 1.2e-05 s⁻¹ |  | 
14 | C67U C71A | 0.000182 ± 3.8e-05 s⁻¹ |  | 0.000131 ± 1.6e-05 s⁻¹ | 0.000168 ± 2.2e-05 s⁻¹ | 6.34e-05 ± 9e-06 s⁻¹ |  | 6.95e-05 ± 1.8e-05 s⁻¹
15 | C16A C58G | 3.2e-05 ± 7.1e-06 s⁻¹ |  | 4.47e-05 ± 1.2e-05 s⁻¹ | 2.59e-05 ± 8.5e-06 s⁻¹ |  |  | 
16 | A42U G66U | 6.96e-05 ± 7.8e-06 s⁻¹ | 1930 ± 830 µM | 4.29e-05 ± 9.1e-06 s⁻¹ | 5.76e-05 ± 6.8e-06 s⁻¹ |  | < 1e-05 s⁻¹ | 
17 | C10A U65A | 1.06e-05 ± 3e-06 s⁻¹ |  |  |  |  |  | 
18 | C16U G37C | 1.3e-05 ± 3e-06 s⁻¹ |  |  |  |  | < 1e-05 s⁻¹ | 
19 | C10U U56C | 2.01e-05 ± 2.1e-06 s⁻¹ |  |  |  |  | < 1e-05 s⁻¹ | 

Row | Variant | kcat (glucosamine-6-phosphate [1]) | KM (glucosamine-6-phosphate [2]) | self-cleavage kobs at 2500 uM GlcN6P (glucosamine-6-phosphate [3]) | self-cleavage kobs at 10000 uM GlcN6P (glucosamine-6-phosphate [4]) | self-cleavage kobs at 640 uM GlcN6P (glucosamine-6-phosphate [5]) | self-cleavage kobs at 40 uM GlcN6P (glucosamine-6-phosphate [6]) | self-cleavage kobs at 160 uM GlcN6P (glucosamine-6-phosphate [7])
20 | A53U | 0.048 ± 0.0058 s⁻¹ | 2500 ± 350 µM | 0.0221 ± 0.00097 s⁻¹ | 0.042 ± 0.0018 s⁻¹ | 0.0093 ± 0.00029 s⁻¹ | 0.000782 ± 1.4e-05 s⁻¹ | 0.00253 ± 0.00016 s⁻¹
21 | G29A C50A | 1.1e-05 ± 3.2e-06 s⁻¹ |  |  |  |  |  | 
22 | U49G A64G | 0.00241 ± 0.00088 s⁻¹ |  | 0.000922 ± 0.00016 s⁻¹ | 0.00232 ± 0.0003 s⁻¹ | 0.000414 ± 6.7e-05 s⁻¹ | 6.16e-05 ± 1e-05 s⁻¹ | 0.00015 ± 4.1e-05 s⁻¹
23 | G32A G44A | 6.55e-05 ± 1.7e-05 s⁻¹ |  |  |  |  |  | 
24 | C10G A52U | < 1e-05 s⁻¹ |  |  |  | < 1e-05 s⁻¹ | < 1e-05 s⁻¹ | < 1e-05 s⁻¹
25 | A15C G41U | 0.000171 ± 7.6e-06 s⁻¹ | 879 ± 120 µM | 0.000137 ± 3.4e-05 s⁻¹ | 0.000154 ± 2.6e-05 s⁻¹ | 7.33e-05 ± 2.3e-05 s⁻¹ |  | 
26 | U31C C71U | 0.00657 ± 0.0031 s⁻¹ |  | 0.00536 ± 0.00083 s⁻¹ | 0.00504 ± 0.00056 s⁻¹ | 0.00111 ± 0.00013 s⁻¹ | 0.000177 ± 1.7e-05 s⁻¹ | 0.000289 ± 3.6e-05 s⁻¹
27 | U55G C58U | 0.00011 ± 7.5e-06 s⁻¹ | 7880 ± 1100 µM | 2.7e-05 ± 8.5e-06 s⁻¹ | 6.17e-05 ± 7.4e-06 s⁻¹ |  |  | 
28 | G59C U69A | 2.45e-05 ± 5.3e-06 s⁻¹ |  |  |  |  |  | 
29 | C11A A12C | 0.00026 ± 5.5e-05 s⁻¹ | 900 ± 380 µM | 0.000182 ± 3.2e-05 s⁻¹ | 0.000406 ± 0.00015 s⁻¹ | 0.000103 ± 1.8e-05 s⁻¹ |  | 4.82e-05 ± 1.5e-05 s⁻¹
30 | G29C G41C | 1.23e-05 ± 4.8e-07 s⁻¹ | 2750 ± 290 µM |  |  | < 1e-05 s⁻¹ |  | < 1e-05 s⁻¹
31 | C16U G66U | 0.00129 ± 0.00016 s⁻¹ | 1550 ± 340 µM | 0.000956 ± 0.00011 s⁻¹ | 0.00105 ± 0.00011 s⁻¹ | 0.000375 ± 4.5e-05 s⁻¹ | 3.86e-05 ± 7.8e-06 s⁻¹ | 9.95e-05 ± 2e-05 s⁻¹
32 | A39C U65C | 0.000473 ± 8.7e-05 s⁻¹ | 2250 ± 770 µM | 0.000311 ± 7.1e-05 s⁻¹ | 0.000367 ± 6.1e-05 s⁻¹ | 0.000107 ± 2e-05 s⁻¹ |  | 
33 | A15U C67G | 0.000167 ± 1.9e-06 s⁻¹ | 1030 ± 37 µM | 0.000115 ± 1.8e-05 s⁻¹ | 0.000153 ± 1.2e-05 s⁻¹ | 6.43e-05 ± 9.7e-06 s⁻¹ |  | 2.34e-05 ± 1.1e-05 s⁻¹
34 | U46A C61A | 1.2e-05 ± 3e-07 s⁻¹ | 1800 ± 100 µM |  |  |  |  | 
35 | G40A A64C | 6.62e-05 ± 1.1e-05 s⁻¹ |  |  | 5.19e-05 ± 1.5e-05 s⁻¹ |  |  | 
36 | C8G U57A C70A | 5.04e-05 ± 1.1e-05 s⁻¹ |  |  |  |  |  | 
37 | G29C G66A | 0.00186 ± 0.00025 s⁻¹ | 4030 ± 750 µM | 0.000714 ± 0.00013 s⁻¹ | 0.00132 ± 0.0002 s⁻¹ | 0.00027 ± 3.9e-05 s⁻¹ |  | 6.45e-05 ± 1.3e-05 s⁻¹
38 | A52C C67A C68G | 2.5e-05 ± 1.2e-05 s⁻¹ |  |  |  |  |  | 
